According to patent publication US20150315260A1 (Sanofi, published 2015):
Starred links: 1 amine or outer side, 2 acyl side, 3 side chain; linkers in the order of their positions; H or OH if unused. Non-standard residues stand in square brackets, D forms with d. Groups on a side chain read outwards from the residue. No end group written: not given here. *: point of attachment. γGlu = O=C(O)[C@H](CCC(=O)[*:2])N[*:1]; Stearoyl = CCCCCCCCCCCCCCCCCC(=O)*; Palmitoyl = CCCCCCCCCCCCCCCC(=O)*; Aib = CC(C)(N)C(=O)O

T1: human GIP receptor (human, UniProt P48546 22-466)
T1 sequence (looked up): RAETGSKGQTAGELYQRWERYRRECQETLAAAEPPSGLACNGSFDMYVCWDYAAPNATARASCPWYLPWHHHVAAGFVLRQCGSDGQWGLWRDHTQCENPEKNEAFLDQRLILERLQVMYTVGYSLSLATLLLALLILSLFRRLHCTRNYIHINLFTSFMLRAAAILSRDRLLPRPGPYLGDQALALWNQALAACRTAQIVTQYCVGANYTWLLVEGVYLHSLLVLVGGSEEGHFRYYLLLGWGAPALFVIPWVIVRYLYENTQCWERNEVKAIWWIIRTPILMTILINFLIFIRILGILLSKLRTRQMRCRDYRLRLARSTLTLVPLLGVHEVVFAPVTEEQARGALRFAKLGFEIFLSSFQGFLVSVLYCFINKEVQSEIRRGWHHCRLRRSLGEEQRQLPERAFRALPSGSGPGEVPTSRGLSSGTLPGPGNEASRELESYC

B1: exendin-4 derivative SEQ ID NO: 9 (peptide)
peptide: H[Aib]QGTFTSDLSKQK([γGlu-Stearoyl])DEQRAKLFIEWL[Aib]AGGPSSGAPPPS-NH2
modifications: N-terminus assumed
SMILES: CCCCCCCCCCCCCCCCCC(=O)N[C@@H](CCC(=O)NCCCC[C@H](NC(=O)[C@H](CCC(N)=O)NC(=O)[C@H](CCCCN)NC(=O)[C@H](CO)NC(=O)[C@H](CC(C)C)NC(=O)[C@H](CC(=O)O)NC(=O)[C@H](CO)NC(=O)[C@@H](NC(=O)[C@H](Cc1ccccc1)NC(=O)[C@@H](NC(=O)CNC(=O)[C@H](CCC(N)=O)NC(=O)C(C)(C)NC(=O)[C@@H](N)Cc1c[nH]cn1)[C@@H](C)O)[C@@H](C)O)C(=O)N[C@@H](CC(=O)O)C(=O)N[C@@H](CCC(=O)O)C(=O)N[C@@H](CCC(N)=O)C(=O)N[C@@H](CCCNC(=N)N)C(=O)N[C@@H](C)C(=O)N[C@@H](CCCCN)C(=O)N[C@@H](CC(C)C)C(=O)N[C@@H](Cc1ccccc1)C(=O)N[C@H](C(=O)N[C@@H](CCC(=O)O)C(=O)N[C@@H](Cc1c[nH]c2ccccc12)C(=O)N[C@@H](CC(C)C)C(=O)NC(C)(C)C(=O)N[C@@H](C)C(=O)NCC(=O)NCC(=O)N1CCC[C@H]1C(=O)N[C@@H](CO)C(=O)N[C@@H](CO)C(=O)NCC(=O)N[C@@H](C)C(=O)N1CCC[C@H]1C(=O)N1CCC[C@H]1C(=O)N1CCC[C@H]1C(=O)N[C@@H](CO)C(N)=O)[C@@H](C)CC)C(=O)O
B2: exendin-4 derivative SEQ ID NO: 11 (peptide)
peptide: H[Aib]QGTFTSDLSKQK([γGlu-Palmitoyl])DEQRAKLFIEWL[Aib]A[dA]GPSSGAPPPS-NH2
modifications: N-terminus assumed
SMILES: CCCCCCCCCCCCCCCC(=O)N[C@@H](CCC(=O)NCCCC[C@H](NC(=O)[C@H](CCC(N)=O)NC(=O)[C@H](CCCCN)NC(=O)[C@H](CO)NC(=O)[C@H](CC(C)C)NC(=O)[C@H](CC(=O)O)NC(=O)[C@H](CO)NC(=O)[C@@H](NC(=O)[C@H](Cc1ccccc1)NC(=O)[C@@H](NC(=O)CNC(=O)[C@H](CCC(N)=O)NC(=O)C(C)(C)NC(=O)[C@@H](N)Cc1c[nH]cn1)[C@@H](C)O)[C@@H](C)O)C(=O)N[C@@H](CC(=O)O)C(=O)N[C@@H](CCC(=O)O)C(=O)N[C@@H](CCC(N)=O)C(=O)N[C@@H](CCCNC(=N)N)C(=O)N[C@@H](C)C(=O)N[C@@H](CCCCN)C(=O)N[C@@H](CC(C)C)C(=O)N[C@@H](Cc1ccccc1)C(=O)N[C@H](C(=O)N[C@@H](CCC(=O)O)C(=O)N[C@@H](Cc1c[nH]c2ccccc12)C(=O)N[C@@H](CC(C)C)C(=O)NC(C)(C)C(=O)N[C@@H](C)C(=O)N[C@H](C)C(=O)NCC(=O)N1CCC[C@H]1C(=O)N[C@@H](CO)C(=O)N[C@@H](CO)C(=O)NCC(=O)N[C@@H](C)C(=O)N1CCC[C@H]1C(=O)N1CCC[C@H]1C(=O)N1CCC[C@H]1C(=O)N[C@@H](CO)C(N)=O)[C@@H](C)CC)C(=O)O
B3: exendin-4 derivative SEQ ID NO: 14 (peptide)
peptide: H[Aib]QGTFTSDLSKQK([γGlu-γGlu-Palmitoyl])DEQRAKLFIEWL[Aib]K[dA]GPSSGAPPPS-NH2
modifications: N-terminus assumed
SMILES: CCCCCCCCCCCCCCCC(=O)N[C@@H](CCC(=O)N[C@@H](CCC(=O)NCCCC[C@H](NC(=O)[C@H](CCC(N)=O)NC(=O)[C@H](CCCCN)NC(=O)[C@H](CO)NC(=O)[C@H](CC(C)C)NC(=O)[C@H](CC(=O)O)NC(=O)[C@H](CO)NC(=O)[C@@H](NC(=O)[C@H](Cc1ccccc1)NC(=O)[C@@H](NC(=O)CNC(=O)[C@H](CCC(N)=O)NC(=O)C(C)(C)NC(=O)[C@@H](N)Cc1c[nH]cn1)[C@@H](C)O)[C@@H](C)O)C(=O)N[C@@H](CC(=O)O)C(=O)N[C@@H](CCC(=O)O)C(=O)N[C@@H](CCC(N)=O)C(=O)N[C@@H](CCCNC(=N)N)C(=O)N[C@@H](C)C(=O)N[C@@H](CCCCN)C(=O)N[C@@H](CC(C)C)C(=O)N[C@@H](Cc1ccccc1)C(=O)N[C@H](C(=O)N[C@@H](CCC(=O)O)C(=O)N[C@@H](Cc1c[nH]c2ccccc12)C(=O)N[C@@H](CC(C)C)C(=O)NC(C)(C)C(=O)N[C@@H](CCCCN)C(=O)N[C@H](C)C(=O)NCC(=O)N1CCC[C@H]1C(=O)N[C@@H](CO)C(=O)N[C@@H](CO)C(=O)NCC(=O)N[C@@H](C)C(=O)N1CCC[C@H]1C(=O)N1CCC[C@H]1C(=O)N1CCC[C@H]1C(=O)N[C@@H](CO)C(N)=O)[C@@H](C)CC)C(=O)O)C(=O)O
B4: exendin-4 derivative SEQ ID NO: 10 (peptide)
peptide: H[Aib]QGTFTSDLSKQK([γGlu-Palmitoyl])DEQRAKLFIEWL[Aib]AGGPSSGAPPPS-NH2
modifications: N-terminus assumed
SMILES: CCCCCCCCCCCCCCCC(=O)N[C@@H](CCC(=O)NCCCC[C@H](NC(=O)[C@H](CCC(N)=O)NC(=O)[C@H](CCCCN)NC(=O)[C@H](CO)NC(=O)[C@H](CC(C)C)NC(=O)[C@H](CC(=O)O)NC(=O)[C@H](CO)NC(=O)[C@@H](NC(=O)[C@H](Cc1ccccc1)NC(=O)[C@@H](NC(=O)CNC(=O)[C@H](CCC(N)=O)NC(=O)C(C)(C)NC(=O)[C@@H](N)Cc1c[nH]cn1)[C@@H](C)O)[C@@H](C)O)C(=O)N[C@@H](CC(=O)O)C(=O)N[C@@H](CCC(=O)O)C(=O)N[C@@H](CCC(N)=O)C(=O)N[C@@H](CCCNC(=N)N)C(=O)N[C@@H](C)C(=O)N[C@@H](CCCCN)C(=O)N[C@@H](CC(C)C)C(=O)N[C@@H](Cc1ccccc1)C(=O)N[C@H](C(=O)N[C@@H](CCC(=O)O)C(=O)N[C@@H](Cc1c[nH]c2ccccc12)C(=O)N[C@@H](CC(C)C)C(=O)NC(C)(C)C(=O)N[C@@H](C)C(=O)NCC(=O)NCC(=O)N1CCC[C@H]1C(=O)N[C@@H](CO)C(=O)N[C@@H](CO)C(=O)NCC(=O)N[C@@H](C)C(=O)N1CCC[C@H]1C(=O)N1CCC[C@H]1C(=O)N1CCC[C@H]1C(=O)N[C@@H](CO)C(N)=O)[C@@H](C)CC)C(=O)O
B5: exendin-4 derivative SEQ ID NO: 8 (peptide)
peptide: H[Aib]QGTFTSDLSKQK([γGlu-γGlu-Palmitoyl])DEQRAKLFIEWL[Aib]AGGPSSGAPPPS-NH2
modifications: N-terminus assumed
SMILES: CCCCCCCCCCCCCCCC(=O)N[C@@H](CCC(=O)N[C@@H](CCC(=O)NCCCC[C@H](NC(=O)[C@H](CCC(N)=O)NC(=O)[C@H](CCCCN)NC(=O)[C@H](CO)NC(=O)[C@H](CC(C)C)NC(=O)[C@H](CC(=O)O)NC(=O)[C@H](CO)NC(=O)[C@@H](NC(=O)[C@H](Cc1ccccc1)NC(=O)[C@@H](NC(=O)CNC(=O)[C@H](CCC(N)=O)NC(=O)C(C)(C)NC(=O)[C@@H](N)Cc1c[nH]cn1)[C@@H](C)O)[C@@H](C)O)C(=O)N[C@@H](CC(=O)O)C(=O)N[C@@H](CCC(=O)O)C(=O)N[C@@H](CCC(N)=O)C(=O)N[C@@H](CCCNC(=N)N)C(=O)N[C@@H](C)C(=O)N[C@@H](CCCCN)C(=O)N[C@@H](CC(C)C)C(=O)N[C@@H](Cc1ccccc1)C(=O)N[C@H](C(=O)N[C@@H](CCC(=O)O)C(=O)N[C@@H](Cc1c[nH]c2ccccc12)C(=O)N[C@@H](CC(C)C)C(=O)NC(C)(C)C(=O)N[C@@H](C)C(=O)NCC(=O)NCC(=O)N1CCC[C@H]1C(=O)N[C@@H](CO)C(=O)N[C@@H](CO)C(=O)NCC(=O)N[C@@H](C)C(=O)N1CCC[C@H]1C(=O)N1CCC[C@H]1C(=O)N1CCC[C@H]1C(=O)N[C@@H](CO)C(N)=O)[C@@H](C)CC)C(=O)O)C(=O)O
B6: exendin-4 derivative SEQ ID NO: 12 (peptide)
peptide: H[Aib]QGTFTSDLSKQK([γGlu-γGlu-Palmitoyl])DEQRAKLFIEWL[Aib]S[dA]GPSSGAPPPS-NH2
modifications: N-terminus assumed
SMILES: CCCCCCCCCCCCCCCC(=O)N[C@@H](CCC(=O)N[C@@H](CCC(=O)NCCCC[C@H](NC(=O)[C@H](CCC(N)=O)NC(=O)[C@H](CCCCN)NC(=O)[C@H](CO)NC(=O)[C@H](CC(C)C)NC(=O)[C@H](CC(=O)O)NC(=O)[C@H](CO)NC(=O)[C@@H](NC(=O)[C@H](Cc1ccccc1)NC(=O)[C@@H](NC(=O)CNC(=O)[C@H](CCC(N)=O)NC(=O)C(C)(C)NC(=O)[C@@H](N)Cc1c[nH]cn1)[C@@H](C)O)[C@@H](C)O)C(=O)N[C@@H](CC(=O)O)C(=O)N[C@@H](CCC(=O)O)C(=O)N[C@@H](CCC(N)=O)C(=O)N[C@@H](CCCNC(=N)N)C(=O)N[C@@H](C)C(=O)N[C@@H](CCCCN)C(=O)N[C@@H](CC(C)C)C(=O)N[C@@H](Cc1ccccc1)C(=O)N[C@H](C(=O)N[C@@H](CCC(=O)O)C(=O)N[C@@H](Cc1c[nH]c2ccccc12)C(=O)N[C@@H](CC(C)C)C(=O)NC(C)(C)C(=O)N[C@@H](CO)C(=O)N[C@H](C)C(=O)NCC(=O)N1CCC[C@H]1C(=O)N[C@@H](CO)C(=O)N[C@@H](CO)C(=O)NCC(=O)N[C@@H](C)C(=O)N1CCC[C@H]1C(=O)N1CCC[C@H]1C(=O)N1CCC[C@H]1C(=O)N[C@@H](CO)C(N)=O)[C@@H](C)CC)C(=O)O)C(=O)O

Molecular target: human GLP-1 receptor (human, UniProt P43220 24-463)
Assay: cell-based or functional assay

Binder	EC50 hGLP-1R (cAMP formation) [pM]
B1	6.4
B2	10.3
B3	4.1
B4	3.5
B5	2.3
B6	3.7

Molecular target: human glucagon receptor (human, UniProt P47871 26-477)
Assay: cell-based or functional assay

human glucagon receptor, sequence (P47871 26-477): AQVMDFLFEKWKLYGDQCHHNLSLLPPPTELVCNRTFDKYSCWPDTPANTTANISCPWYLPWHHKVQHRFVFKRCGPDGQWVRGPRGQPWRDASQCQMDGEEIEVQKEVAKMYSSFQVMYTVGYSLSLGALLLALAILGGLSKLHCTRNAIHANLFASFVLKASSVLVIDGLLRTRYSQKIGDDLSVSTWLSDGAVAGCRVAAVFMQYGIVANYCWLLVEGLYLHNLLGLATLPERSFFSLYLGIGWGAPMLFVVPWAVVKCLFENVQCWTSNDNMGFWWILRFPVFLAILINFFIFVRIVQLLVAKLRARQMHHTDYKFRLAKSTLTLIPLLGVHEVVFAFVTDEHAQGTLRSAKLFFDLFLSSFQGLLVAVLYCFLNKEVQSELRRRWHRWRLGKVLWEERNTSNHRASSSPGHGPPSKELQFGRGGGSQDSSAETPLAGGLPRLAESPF

Binder	EC50 hGlucagon-R (cAMP formation) [pM]
B1	15.4
B2	261
H[Aib]QGTFTSDLSKQK([γGlu-γGlu-Palmitoyl])DEQRAKLFIEWL[Aib]SGGPSSGAPPPS-NH2 [exendin-4 derivative SEQ ID NO: 13]	22.8
B3	194
H[Aib]QGTFTSDLSKQK([γGlu-γGlu-Palmitoyl])DEQRAKLFIEWL[Aib]KGGPSSGAPPPS-NH2 [exendin-4 derivative SEQ ID NO: 15]	42.6
B4	52.4
B5	28.1
B6	130

Molecular target: T1, human GIP receptor
Assay: cell-based or functional assay

Binder	EC50 hGIP-R (cAMP formation) [pM]
B1	1160
B2	13400
H[Aib]QGTFTSDLSKQK([γGlu-γGlu-Palmitoyl])DEQRAKLFIEWL[Aib]SGGPSSGAPPPS-NH2 [exendin-4 derivative SEQ ID NO: 13]	2390
B3	6530
H[Aib]QGTFTSDLSKQK([γGlu-γGlu-Palmitoyl])DEQRAKLFIEWL[Aib]KGGPSSGAPPPS-NH2 [exendin-4 derivative SEQ ID NO: 15]	1860
B4	890
B5	2140
B6	8290
